What all share (test): BLI
A general note: Biolayer interferometry detects binding as a change in optical thickness at a sensor tip.

The target in assay [1] is TRIM21–ME2 fusion protein (human) (UniProt P19474).
For assay [2], the target named is TRIM21–MC1 fusion protein (human) (UniProt P19474).
Assay [3] deals with TRIM21–MH4 fusion protein (human) (UniProt P19474).

By Kd is commonly meant the concentration at which binding is half-saturated. Low values mean a tighter complex, high ones a looser complex.

Take “recombinant MALT1 (BPS Bioscience), analyte in BLI (from UniProt Q9UDY8 1-824) (natural protein)”: the Kd in assay [1] worked out at 753 nM; in assay [2], 475 nM; in assay [3] it was 148 nM.

These data come from PMC10694607.
